We go through 16 substances from patent publication US20240132578A1.

Assay in all cases: cell-based or functional assay
Assay [1] has as its target HIV-1 MGRM-G-006 Env (pseudovirus) (HIV-1).
In assay [2] the target is HIV-1 Env of isolate MGRM-D-011 (clade D pseudovirus) (HIV-1).
Assay [3] has as its target HIV-1 92TH021 envelope (Env) on pseudovirus (HIV-1).
Assay [4] concerns the target HIV-1 Env of isolate MGRM-D-012 (clade D pseudovirus) (HIV-1).
The target of assay [5] is HIV-1 Env of isolate 6535.3 (Acute), clade B (HIV-1).
In assay [6] the target is HIV-1 Env of isolate 92UG024 (clade D pseudovirus) (HIV-1).
Assay [7] has as its target HIV-1 Env of pseudovirus MGRM-G-019 (HIV-1).
In assay [8] the target is HIV-1 Env of isolate 93UG077 (clade A pseudovirus) (HIV-1).
In assay [9] the target is HIV-1 MGRM-AG-006 Env (pseudovirus) (HIV-1).
Assay [10] concerns the target HIV-1 envelope glycoprotein (Env) of isolate MGRM-C-025 (HIV-1).
For assay [11], the target named is HIV-1 MGRM-AE-004 Env (pseudovirus) (HIV-1).
Assay [12] addresses aMLV envelope on pseudovirus (negative control).
For assay [13], the target named is HIV-1 Env of isolate 92TH021 (pseudovirus) (HIV-1).
For assay [14], the target named is HIV-1 Env of isolate MGRM-C-023 (subtype C), on pseudovirus (HIV-1).
The target of assay [15] is HIV-1 Env of isolate MGRM-G-025 (subtype G) (HIV-1).
The target in assay [16] is HIV-1 Env of isolate MGRM-G-028 (subtype G) (HIV-1).
Assay [17] addresses HIV-1 Env of isolate MG RM-A-006 (pseudovirus) (HIV-1).
Assay [18] addresses HIV-1 Env of pseudovirus isolate CAAN.A2 (clade B) (HIV-1).
Assay [19] concerns the target HIV-1 Env of isolate MG RM-A-007 (pseudovirus) (HIV-1).
Assay [20] deals with HIV-1 Env of isolate MGRM-G-011 (subtype G) (HIV-1).
Assay [21] concerns the target HIV-1 envelope glycoprotein (Env) of isolate MGRM-Chronic-B-020, on pseudovirus (HIV-1).
Assay [22] concerns the target HIV-1 envelope glycoprotein (Env) of isolate 6535.3, on pseudovirus (HIV-1).
The target of assay [23] is HIV-1 envelope glycoprotein (Env) of isolate PVO.4, on pseudovirus (HIV-1).
In assay [24] the target is HIV-1 Env of isolate MGRM-F1-021 (pseudovirus) (HIV-1).
The target of assay [25] is HIV-1 envelope glycoprotein (Env) of isolate 93TH305, on pseudovirus (HIV-1).
In assay [26] the target is HIV-1 CMU02 envelope protein (Env) on pseudovirus (HIV-1).

Sequence of 4995_P16 (PGT-145) (antibody) (VH): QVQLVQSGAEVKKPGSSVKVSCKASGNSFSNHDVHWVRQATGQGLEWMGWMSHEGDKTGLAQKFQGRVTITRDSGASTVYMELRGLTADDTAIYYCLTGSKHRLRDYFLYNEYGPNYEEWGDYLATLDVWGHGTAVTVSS
Sequence of 4995_P16 (PGT-145) (antibody) (VL): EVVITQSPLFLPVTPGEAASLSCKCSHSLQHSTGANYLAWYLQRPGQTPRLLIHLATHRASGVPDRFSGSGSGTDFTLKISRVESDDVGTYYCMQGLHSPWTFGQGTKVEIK
Sequence of 1443_C16 (PG16) (TCN-116) (antibody) (VH): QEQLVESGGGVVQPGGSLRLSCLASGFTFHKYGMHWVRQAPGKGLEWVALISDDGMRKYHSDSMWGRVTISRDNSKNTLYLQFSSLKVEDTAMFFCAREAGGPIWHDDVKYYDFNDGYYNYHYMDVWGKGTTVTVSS
Sequence of 1443_C16 (PG16) (TCN-116) (antibody) (VL): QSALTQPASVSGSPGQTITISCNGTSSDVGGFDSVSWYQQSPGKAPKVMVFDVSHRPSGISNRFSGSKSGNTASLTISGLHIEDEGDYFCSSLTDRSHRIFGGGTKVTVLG
Sequence of 4993_K13 (PGT-141) (antibody) (VH): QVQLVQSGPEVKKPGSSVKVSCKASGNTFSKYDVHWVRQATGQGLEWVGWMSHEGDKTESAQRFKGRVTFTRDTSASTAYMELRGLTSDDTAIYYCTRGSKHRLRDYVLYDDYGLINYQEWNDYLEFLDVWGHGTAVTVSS
Sequence of 4993_K13 (PGT-141) (antibody) (VL): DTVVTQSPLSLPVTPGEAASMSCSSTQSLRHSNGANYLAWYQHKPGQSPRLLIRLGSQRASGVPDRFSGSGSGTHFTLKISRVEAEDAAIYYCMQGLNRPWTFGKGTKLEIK
Sequence of 4970_K22 (PGT-144) (antibody) (VH): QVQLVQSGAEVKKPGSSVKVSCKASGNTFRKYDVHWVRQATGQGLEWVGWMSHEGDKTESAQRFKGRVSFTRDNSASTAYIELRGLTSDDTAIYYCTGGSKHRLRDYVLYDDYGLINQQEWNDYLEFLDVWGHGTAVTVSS
Sequence of 4970_K22 (PGT-144) (antibody) (VL): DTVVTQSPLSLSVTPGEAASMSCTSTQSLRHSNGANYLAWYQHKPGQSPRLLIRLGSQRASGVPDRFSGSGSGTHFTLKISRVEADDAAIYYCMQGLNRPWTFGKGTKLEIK
Sequence of 4980_N08 (PGT-143) (antibody) (VH): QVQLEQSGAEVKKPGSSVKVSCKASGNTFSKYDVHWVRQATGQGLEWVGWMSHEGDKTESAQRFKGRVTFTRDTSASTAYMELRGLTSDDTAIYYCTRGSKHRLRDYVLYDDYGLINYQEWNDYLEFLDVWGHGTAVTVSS
Sequence of 4980_N08 (PGT-143) (antibody) (VL): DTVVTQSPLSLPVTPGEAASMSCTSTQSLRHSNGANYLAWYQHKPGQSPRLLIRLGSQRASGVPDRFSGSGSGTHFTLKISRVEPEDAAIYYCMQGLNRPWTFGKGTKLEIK
Sequence of 4995_E20 (PGT-142) (antibody) (VH): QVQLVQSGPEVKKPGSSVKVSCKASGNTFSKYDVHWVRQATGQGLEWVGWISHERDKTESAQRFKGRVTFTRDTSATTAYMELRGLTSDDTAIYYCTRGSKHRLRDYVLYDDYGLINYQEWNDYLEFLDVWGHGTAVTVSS

As to 4E10 (antibody), the IC50 (µg/ml), pseudovirus neutralization in [1] was 1.23 µg/mL; in [5] it was 1.23 µg/mL; in [7], 6.53 µg/mL; in assay [8] it was 10.6 µg/mL; in [9], 1.76 µg/mL; in assay [10], 5.58 µg/mL. The substance also came in with an IC50 (µg/ml), pseudovirus neutralization in [11] of 1.27 µg/mL. In addition, the IC50, pseudovirus neutralization in [2] is 0.91 µg/mL; in [4] it was 1.13 µg/mL; in assay [6] it was 2.17 µg/mL. Besides, the neutralization IC50 in [3] was 1.9 µg/mL; in [12], over 50 µg/mL.
Take 4995_P16 (PGT-145) (antibody): the IC50 (µg/mL), single-round pseudovirus neutralization in assay [13] is 0.013 µg/mL; in assay [17], over 50 µg/mL; in [19], over 50 µg/mL. Further, in assay [14], the IC50, single-round pseudovirus neutralization amounted to 0.201 µg/mL. For the same substance, the IC50 (µg/mL), pseudovirus neutralization was over 50 µg/mL in assay [15], 0.046 µg/mL in [16] and 0.028 µg/mL in assay [20]. The IC50, pseudovirus neutralization in assay [18] came to 7.08 µg/mL.
In the case of 4993_K13 (PGT-141) (antibody), the IC50 (µg/mL), single-round pseudovirus neutralization in [13] was 0.001 µg/mL; in assay [17] it was over 50 µg/mL; in [19] it was over 50 µg/mL. The IC50, single-round pseudovirus neutralization in [14] came out at 0.153 µg/mL. Moreover, the IC50 (µg/mL), pseudovirus neutralization was over 50 µg/mL in assay [15], 24.9 µg/mL in assay [16] and 0.086 µg/mL in assay [20]. This substance registered an IC50, pseudovirus neutralization in assay [18] of over 50 µg/mL.
Take 4877_D15 (PGT-122) (antibody): the IC50, pseudovirus neutralization in assay [21] is 0.005 µg/mL; in assay [22], 0.006 µg/mL; in assay [23], 0.689 µg/mL; in assay [25] it was 0.013 µg/mL. In [24], the IC50 (µg/mL), pseudovirus neutralization came out at 2.3 µg/mL. Besides, the IC50 (ug/mL), pseudovirus neutralization in assay [26] is over 10 µg/mL.
On to 4858_P08 (PGT-123) (antibody), for which the IC50, pseudovirus neutralization in assay [21] stood at 0.005 µg/mL; in [22], 0.004 µg/mL; in [23] it was 0.105 µg/mL; in assay [25], 0.008 µg/mL. The substance also displayed an IC50 (µg/mL), pseudovirus neutralization in assay [24] of 0.307 µg/mL. Also, the IC50 (ug/mL), pseudovirus neutralization in assay [26] was over 10 µg/mL.
On to 1496_C09 (PG9) (TCN-109) (antibody), for which the IC50 (µg/mL), pseudovirus neutralization amounted to 0.059 µg/mL in [13], 0.891 µg/mL in assay [16] and 0.335 µg/mL in [20]. The IC50 (µg/ml), pseudovirus neutralization in assay [1] was 0.51 µg/mL; in assay [5] it was 0.22 µg/mL; in assay [7], 0.67 µg/mL; in assay [10] it was 0.17 µg/mL; in assay [11] it was 0.01 µg/mL. Moreover, the values for the IC50, pseudovirus neutralization in assay [2], in [4] and in [6] were 0.06 µg/mL, 9.31 µg/mL and 1.91 µg/mL, respectively. Further, the neutralization IC50 in assay [3] stood at 0.111 µg/mL.
For the substance b12 (antibody), the IC50 (µg/ml), pseudovirus neutralization in [1] is over 50 µg/mL; in [5], 1.93 µg/mL; in assay [7] it was 3.77 µg/mL; in [8], 47 µg/mL; in assay [9] it was over 50 µg/mL; in assay [10], over 50 µg/mL. The substance also had an IC50 (µg/ml), pseudovirus neutralization in assay [11] of over 50 µg/mL. For the same substance, the IC50, pseudovirus neutralization came to 7.75 µg/mL in assay [2], 0.13 µg/mL in assay [4] and 45.6 µg/mL in [6]. The neutralization IC50 is 9.99 µg/mL in assay [3] and over 50 µg/mL in [12].
On to 1443_C16 (PG16) (TCN-116) (antibody), for which the IC50 (µg/ml), pseudovirus neutralization in assay [1] is 2.42 µg/mL; in assay [5], 36.9 µg/mL; in assay [7] it was 1.21 µg/mL; in assay [8], over 50 µg/mL; in assay [9], over 50 µg/mL; in assay [10], 0.04 µg/mL. The IC50 (µg/ml), pseudovirus neutralization in assay [11] amounted to 0.002 µg/mL. The IC50, pseudovirus neutralization in assay [2] came to 0.01 µg/mL; in assay [4] it was 0.35 µg/mL; in assay [6], 24 µg/mL. Further, the neutralization IC50 in [3] was 0.127 µg/mL; in assay [12], over 50 µg/mL.
For the substance 4995_E20 (PGT-142) (antibody), the IC50 (µg/mL), single-round pseudovirus neutralization in [13] is 0.002 µg/mL; in assay [17] it was over 50 µg/mL; in [19], over 50 µg/mL. The substance also displayed an IC50, single-round pseudovirus neutralization in assay [14] of 0.087 µg/mL. The IC50 (µg/mL), pseudovirus neutralization in assay [15] was over 50 µg/mL; in assay [16], 30.3 µg/mL; in assay [20], 0.046 µg/mL. The substance also yielded an IC50, pseudovirus neutralization in assay [18] of over 50 µg/mL.
For the substance PGV04 (antibody), the IC50 (µg/mL), pseudovirus neutralization in assay [13] is 1.29 µg/mL; in assay [15] it was 1.61 µg/mL; in assay [16], 0.352 µg/mL; in assay [20], 0.78 µg/mL.
Regarding 1495_C14 (PGC14) (antibody), the IC50 (µg/ml), pseudovirus neutralization was over 50 µg/mL in assay [1]; 35 µg/mL in [5]; over 50 µg/mL in assay [7]; over 50 µg/mL in [8]; over 50 µg/mL in assay [9]; over 50 µg/mL in assay [10]. In addition, the IC50 (µg/ml), pseudovirus neutralization in assay [11] is over 50 µg/mL. In addition, the IC50, pseudovirus neutralization in [2], in assay [4] and in [6] was over 50 µg/mL throughout. In addition, the neutralization IC50 in assay [3] and in assay [12] was over 50 µg/mL in each case.
With 4970_K22 (PGT-144) (antibody), the IC50 (µg/mL), single-round pseudovirus neutralization in assay [13] is 0.052 µg/mL; in [17], over 50 µg/mL; in assay [19] it was over 50 µg/mL. Moreover, in assay [14], the IC50, single-round pseudovirus neutralization stood at 0.38 µg/mL. In addition, the IC50 (µg/mL), pseudovirus neutralization in [15] is over 50 µg/mL; in [16], over 50 µg/mL; in assay [20], 1.58 µg/mL. The IC50, pseudovirus neutralization in assay [18] is over 50 µg/mL.
In the case of 4980_N08 (PGT-143) (antibody), the IC50 (µg/mL), single-round pseudovirus neutralization in assay [13] is 0.003 µg/mL; in [17], over 50 µg/mL; in assay [19], over 50 µg/mL. In assay [14], this substance registered an IC50, single-round pseudovirus neutralization of 0.148 µg/mL. For the same substance, the IC50 (µg/mL), pseudovirus neutralization was over 50 µg/mL in assay [15], 43 µg/mL in assay [16] and 0.074 µg/mL in assay [20]. For the same substance, the IC50, pseudovirus neutralization in [18] was over 50 µg/mL.
Consider 2G12 (antibody), for which the IC50 (µg/ml), pseudovirus neutralization was over 50 µg/mL in assay [1]; 3.85 µg/mL in assay [5]; 31 µg/mL in assay [7]; over 50 µg/mL in [8]; 3.92 µg/mL in assay [9]; over 50 µg/mL in assay [10]. For the same substance, the IC50 (µg/ml), pseudovirus neutralization in [11] is over 50 µg/mL. The IC50, pseudovirus neutralization in [2] is 1.5 µg/mL; in assay [4], over 50 µg/mL; in assay [6] it was 0.42 µg/mL. Further, the neutralization IC50 in [3] and in assay [12] was over 50 µg/mL throughout.
On to 4838_L06 (PGT-121) (antibody), for which the IC50, pseudovirus neutralization in assay [21] turned out to be 0.004 µg/mL; in [22], 0.005 µg/mL; in assay [23], 0.137 µg/mL; in assay [25] it was 0.007 µg/mL. The substance also yielded an IC50 (µg/mL), pseudovirus neutralization in assay [24] of 0.099 µg/mL. The IC50 (ug/mL), pseudovirus neutralization in [26] is over 10 µg/mL.
For the substance 2F5 (antibody), the IC50 (µg/ml), pseudovirus neutralization in [1] was 1.33 µg/mL; in assay [5] it was 2.76 µg/mL; in assay [7] it was over 50 µg/mL; in assay [8], 3.3 µg/mL; in assay [9], 0.85 µg/mL; in [10], over 50 µg/mL. In addition, the IC50 (µg/ml), pseudovirus neutralization in [11] worked out at 0.98 µg/mL. Also, the IC50, pseudovirus neutralization in assay [2] is over 50 µg/mL; in assay [4] it was 1.7 µg/mL; in assay [6] it was 0.95 µg/mL. Also, the figures for the neutralization IC50 in [3] and in assay [12] were 1.51 µg/mL and over 50 µg/mL, respectively.
